From patent US20260191943A1, “Methods for Preparing Conjugated Capsular Saccharide Antigens and Uses Thereof” (PFIZER INC., priority 2022, published 2026) come the findings set out here.

Square brackets hold non-standard residues; d marks the D form. Ends that are not written are not given here. Pra = C#CC[C@H](N)C(=O)O

This data set is described as follows: PADRE peptide solubility / staying in solution. The format is physicochemical. The procedure:
It is possible that the PADRE constructs disclosed herein may have solubility limitations in aqueous solutions (<5 mg/ml max concentration) versus DMSO solutions (<10 mg/ml max concentration), so conditions for PADRE solubility were adjusted to achieve optimum click conjugation efficiency. Ionic gelling may have occurred during the CDAP or DMTMM direct incorporation of PADRE 2, as buffer matrix with high ionic strength in higher concentrated Pn3 solutions promotes gelling. Aggregation with an alkynated CRM197 batch fed approach was also observed in click conjugation reactions. To avoid potential solubility issues, the following conditions with PADRE 3 were proposed: 1. Lower the ionic strength of the reaction matrix and diafiltration matrix to 10 mM phosphate pH 7.0, 2. Slow dose addition of alkynated PADRE 3 into the reaction, and 3. make stock solution of alkynated PADRE 3 in water instead of DMSO to eliminate the need for a lyophilization step.
A reaction was run omitting DMSO from a click conjugate protocol for alkynated trimeric gp120 Epitope mimic peptides using 5 mM Sodium ascorbate, 5 mM aminoguanidine, 0.1 mM CuSO4, and 0.5 mM THPTA ligand in 10 mM phosphate buffer at pH 7.4 containing 5% DMSO for 18 hr [Schellinger et al. (2011) J Am Chem Soc 133(10):3230-3233]. […]

Take “{d-ALA}KVAAWTLKAA{d-ALA}{Pra} ([dA]KVAAWTLKAA[dA][Pra]) [PADRE 3]”: the peptide solution solubility result (37° C. in the incubator at 200 rpm agitation, DMSO omitted) is reported as “stayed soluble”. Moreover, the “stock solution staying in solution” value (alkynated PADRE 3 stock in water, after 18 hr at room temperature) is listed as “did not come out of solution”.
